Experimental data from the Immune Epitope Database (IEDB).

What was measured:
Details in all cases: source organism: Vaccinia virus WR
HLA-A*11:01 [1] = test: IEDB peptide-MHC binding, purified MHC/competitive/radioactivity; ≥ and ≤ were set here for values at or beyond the usual limits of such assays
HLA-A*03:01 [2] = test: IEDB peptide-MHC binding, purified MHC/competitive/radioactivity; filed as Kd, often an IC50 or EC50 that approximates it; ≥ and ≤ were set here for values at or beyond the usual limits of such assays
HLA-A*68:01 = test: as above
HLA-A*31:01 = test: as above
HLA-A*33:01 = test: as above
HLA-A*03:01 [3] = test: IEDB peptide-MHC binding, purified MHC/competitive/radioactivity; ≥ and ≤ were set here for values at or beyond the usual limits of such assays
HLA-A*11:01 [4] = test: IEDB peptide-MHC binding, purified MHC/competitive/radioactivity; filed as Kd, often an IC50 or EC50 that approximates it; ≥ and ≤ were set here for values at or beyond the usual limits of such assays
HLA-A*02:01 = test: IEDB peptide-MHC binding, purified MHC/competitive/radioactivity; ≥ and ≤ were set here for values at or beyond the usual limits of such assays
HLA-A*02:06 = test: IEDB peptide-MHC binding, purified MHC/competitive/radioactivity; filed as Kd, often an IC50 or EC50 that approximates it; ≥ and ≤ were set here for values at or beyond the usual limits of such assays

Row | Sequence | IC50 (HLA-A*11:01 [1]) [nM] | Kd (HLA-A*03:01 [2]) [nM] | Kd (HLA-A*68:01) [nM] | Kd (HLA-A*31:01) [nM] | Kd (HLA-A*33:01) [nM] | IC50 (HLA-A*03:01 [3]) [nM] | Kd (HLA-A*11:01 [4]) [nM] | IC50 (HLA-A*02:01) [nM] | Kd (HLA-A*02:06) [nM]
1 | ATSLDVINY | 6.8 | 625 | ≥ 50000 | 10300 | ≥ 50000 |  |  |  | 
2 | AVKDVTITKK |  |  | 1620 | 605 | ≥ 50000 | 84 | 519 |  | 
3 | FLVIAINAM |  |  |  |  |  |  |  | 435 | 930
